This is an account of results in patent publication US20200277375A1 (ULTRAHUMAN FOUR, published 2020).

Residue numbers refer to the chain shown, from its start. Numbers in names are those of the source.

The target of assay [1] is T1, cynomolgus monkey CD47 on transfected CHO-K1 cells (cynomolgus monkey, UniProt A0A5F8AK49 19-323 (rhesus entry)).
T1 construct: whole, on cells; also called cyno CD47+ cells
The assay can be described thus: flow cytometry, cyno CD47-transfected CHO-K1, FIG. 6. As for the experimental part: (§1) FIG. 6A-FIG. 6C. Flow cytometric binding to human and cyno CD47+CHO-K1 cells. Commercial anti-CD47 antibody MS1991, human IgG1 (“I IgG1”) and IgG4 (“I IgG4”) Isotype controls, lead library-derived IgGs in both IgG1null (“IgG1N”) and IgG4(S228P) formats were examined for specific binding on cyno-transfected CHO-K1 cells (FIG. 6A), human-transfected CHO-K1 cells (FIG. 6B), and wild type (wt, i.e. untransfected) CHO-K1 cells (FIG. 6C). IgGs were tested at concentrations ranging from 24-100,000 ng/ml. Concentration-dependent binding was observed against both human and cyno cell lines for all CD47-specific antibodies but not Isotype controls.
(§2) Antibodies to CD47 were analysed for concentration-dependent binding at the cell surface via flow cytometry. CHO-K1 cells were stably transfected with either human, mouse or cyno CD47 full-length cDNAs. Anti-CD47 IgGs mVH/mVL, VH-A1/VL-B1, A-D5, G-B6, F-E7 and D-H3, and an isotype control IgG1 were then all tested in IgG1null and IgG4(S228P) formats, alongside a commercial mouse anti-human CD47 monoclonal MS1991, over a concentration range of 100,000-24 ng/ml for binding to human, cyno or wild type control (‘wt’, i.e. untransfected) CHO-K1.

Assay [2] deals with T2, human CD47 on cells (human CD47-transfected CHO-K1; HL60) (human, UniProt Q08722 19-323).
T2 construct: whole, on cells; also called human CD47+ cells; human CD47+HL60 cells
The assay can be described thus: flow cytometry, human CD47-transfected CHO-K1, FIG. 6. How it is done:
as §1, §2
On the technique in general: Flow cytometry measures light scatter and fluorescence of single cells or particles in a stream.

The target of assay [3] is T3, human CD47-Fc (human, UniProt Q08722 19-139).
T3 construct: Recombinant CD47-Fc; also called hCD47-Fc; not shown: Fc part
As to the kind of experiment: direct titration ELISA, FIG. 9A. How it is done:
FIG. 9A-FIG. 9C. Direct titration ELISA for designer IgGs binding to human, mouse and cyno CD47-Fc proteins. Chimeric anti-CD47 (mVH/mVL), designer A-D5-derived clones in human IgG1null format were titrated (in μg/ml) in a direct binding ELISA against human (FIG. 9A), cyno (FIG. 9B) and mouse (FIG. 9C) CD47-Fc proteins. […] In the figure legend, “IgG1NI” refers to IgG1 null isotype.
To coat Greiner Bio-One High bind ELISA plates, target proteins were diluted to 1 μg/ml in carbonate buffer and added at 100 μl per well, at 4° C., o/n. Coated plates were washed 3× with PBS pH7.4, blocked with 1% BSA in PBS (380 μl/well) for 1 hr at RT, then washed 3× with PBS-Tween 20 (PBST). CD47 antibodies (100 μl/well; diluted in PBST) were then added and then incubated 1 hr at RT. Plates were then washed 3× with PBST and goat anti-human kappa chain-HRP added (100 μl/well) at RT, for 1 hr. Plates were then washed 3× with PBST and twice with PBS before the addition of 100 μl TMB per well. Reactions were stopped by adding 100 μl 2M H₂SO₄/well and OD was read on a plate reader at 450 nm.
For orientation: ELISA stands for enzyme-linked immunosorbent assay.

B1: mVH/mVL (chimeric VxP037) in human IgG4(S228P) format (antibody, V domains shown)
VH: EVQLQQFGAELVKPGASMKLSCKASGYTFTNYYVFWVKQRPGQGLEWIGDINPVNGDTNFNEKFKNKATLTVDKSSTTTYLQLSSLTSEDSAVYYCTRGGYTMDYWGQGTLVTVSS
VL: DVVMTQTPLSLSVSLGDQASISCRSSQSLVHSNGNTYLHWYLQKPGQSPKLLIYKVSYRFSGVPDRFSGSGSGTDFTLKISRVEAEDLGVYFCSQNTHVPRTFGQGTKVEIK
notes: IgG4 with S228P; also called mVH/mVL IgG4
As to B1, the “maximum MFI, fold over untransfected CHO-K1” value (“maximum MFI, fold” below) in assay [1] and in assay [2] was above 10 fold throughout.

B2: G-B6 in human IgG4(S228P) format (antibody, V domains shown)
VH: EVQLVQSGAEVKKPGESLKISCKGSGYSFTNYYIFWVRQMPGKGLEWIGDINPVNGDTNFSPSFQGQVTISADKSISTAYLQWSSLKASDTAMYYCARGGYTMDKWGQGTLVTVSS
VL: DIVMTQSPLSLPVTPGEPASISCRSSQSLVHSNGYTYLHWYLQKPGQSPQLLIYKGSYRASGVPDRFSGSGSGTDFTLKISRVEAEDVGVYYCSQNTQTPRTFGQGTKVEIK
notes: IgG4(S228P), kappa; also called G-B6 IgG4
As for B2, the “maximum MFI, fold” value in assay [1] and in assay [2] was above 10 fold each time.

B3: F-E7 in human IgG4(S228P) format (antibody, V domains shown)
VH: B2 VH with I48M, D50I, F60Y, S61N, D104G
VL: B2 VL with Y35N, H39D, A60F, N96A, Q98H
notes: IgG4(S228P), kappa; also called F-E7 IgG4
With B3, the “maximum MFI, fold” value in assay [1] and in assay [2] was above 10 fold each time.

B4: A-D5.9 in human IgG1null format (antibody, V domains shown)
VH: B2 VH with S28T, I48M, D50I, N55D, F60Y, S61N, K105R
VL: B2 VL with V30L, G56V, Y58N, A60L, S94F, N96Q, Q98H
notes: Designer clone from A-D5; IgG1null
With B4, the binding result in assay [3] was “binds”.

B5: VH-A1/VL-B1 in human IgG4(S228P) format (antibody, V domains shown)
VH: B2 VH with I48M, D50I, N55D, N59R, F60Y, Y101F, K105Y
VL: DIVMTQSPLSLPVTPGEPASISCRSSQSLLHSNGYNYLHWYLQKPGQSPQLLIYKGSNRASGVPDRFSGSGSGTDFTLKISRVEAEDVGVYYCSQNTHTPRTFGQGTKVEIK
notes: IgG4(S228P), kappa; also called VH-A1/VL-B1 IgG4
In the case of B5, the “maximum MFI, fold” value in assay [1] and in assay [2] was above 10 fold each time.

B6: A-D5.6 in human IgG1null format (antibody, V domains shown)
VH: B2 VH with S28T, I48M, D50I, N55D, F60Y, S61N, K105R
VL: B2 VL with V30L, T36N, Y58N, A60L, S94F
notes: as for B4
On to B6, for which the binding result in assay [3] was “binds”.

B7: A-D5.5 in human IgG1null format (antibody, V domains shown)
VH: B2 VH with S28T, I48M, D50I, N55D, F60Y, S61N, K105R
VL: B2 VL with V30L, T36N, Y58N, A60L, S94F, Q98H
notes: as for B4
On to B7, for which the binding result in assay [3] is “binds”.

B8: A-D5.10 in human IgG1null format (antibody, V domains shown)
VH: B2 VH with S28T, I48M, D50I, N55D, F60Y, S61N, K105R
VL: B2 VL with V30L, N33Q, G56V, Y58N, A60L, S94F, N96Q, Q98H
notes: as for B4
As for B8, in assay [3], the binding result is “binds”.

B9: A-D5 in human IgG4(S228P) format (antibody, V domains shown)
VH: B2 VH with S28T, I48M, D50I, N55D, F60Y, S61N, K105R
VL: B2 VL with V30L, G56V, Y58N, A60L, S94F, Q98H
notes: IgG4(S228P), kappa; also called IgG4 A-D5
As to B9, the “maximum MFI, fold” value in assay [1] and in assay [2] was above 10 fold throughout.

B10: A-D5.1 in human IgG1null format (antibody, V domains shown)
VH: B2 VH with I48M, D50I, N55D, F60Y, S61N, K105R
VL: B2 VL with V30L, G56V, Y58N, A60L, S94F, Q98H
notes: as for B4
For the molecule B10, the binding result in assay [3] was “binds”.

B11: A-D5.3 in human IgG1null format (antibody, V domains shown)
VH: B2 VH with I48M, D50I, N55D, N59R, F60Y, K105R
VL: B2 VL with V30L, G56V, Y58N, A60L, S94F, Q98H
notes: as for B4
For B11, the binding result in assay [3] is listed as “binds”.

B12: D-H3 in human IgG4(S228P) format (antibody, V domains shown)
VH: B2 VH with I48M, F60Y, M103P, K105Y
VL: B2 VL with V30L, T36N, Y58N, A60F, T97L, Q98H, T99V
notes: IgG4(S228P), kappa; also called D-H3 IgG4
On to B12, for which the “maximum MFI, fold” value in assay [1] and in assay [2] was above 10 fold each time.
